The target of the experiment is T1, FITC-HSA-MORF2 (human serum albumin grafted with multiple copies of morpholino MORF2, FITC-labelled) (human, UniProt P02768 25-609, a fraction of the amino groups converted with SM-(PEG)x to maleimido groups and carrying MORF2 via thioether bonds; FITC label).
T1 construct: mature; also called HSA-(MORF2)x; Nanoconjugate 2A
The experiment can be described thus: confocal microscopy on CD20-expressing Raji cells, without Cy5-Fab′RTX-MORF1. The text has this: Thus, we conducted in vitro confocal microscopy study, using CD20-expressing human NHL Raji B cell line (FIG. 7).

Results on 1 molecule are retold here after patent US20190175751A1 (UNIVERSITY OF UTAH RESEARCH FOUNDATION, published 2019).

B1: CD20 on human Burkitt's B-cell non-Hodgkin's lymphoma Raji cells (receptor, UniProt P11836 1-297, looked up)
chain: MTTPRNSVNGTFPAEPMKGPIAMQSGPKPLFRRMSSLVGPTQSFFMRESKTLGAVQIMNGLFHIALGGLLMIPAGIYAPICVTVWYPLWGGIMYIISGSLLAATEKNSRKCLVKGKMIMNSLSLFAAISGMILSIMDILNIKISHFLKMESLNFIRAHTPYINIYNCEPANPSEKNSPSTQYCYSIQSLFLGILSVMLIFAFFQELVIAGIVENEWKRTCSRPKSNIVLLSAEEKKEQTIEIKEEVVGLTETSSQPKNEEDIEIIPIQEEEEEETETNFPEPPQDQESSPIENDSSP
notes: whole, on cells; also called CD20 antigen; CD20 receptor
In the case of B1, the binding result was “no binding”.
